US20260008847A1 (ELPISCIENCE SUZHOU BIOPHARMA, published 2026)

Key:
[1] = molecular target: T1, 6×His-tagged human LILRB2 ECD recombinant protein (human, UniProt Q8N423 22-458, limits assumed); assay: Octet, 1:1 model; column printed as 'kd (1/s)', heads of c4 and c5 are swapped
T1 construct: Bought protein; not shown: 6×His-tag

[2] = molecular target: T1, 6×His-tagged human LILRB2 ECD …; assay: Octet, 1:1 model; column printed as 'ka (1/Ms)', heads of c4 and c5 are swapped
[3] = molecular target: T1, 6×His-tagged human LILRB2 ECD …; assay: Octet, 1:1 model
[4] = molecular target: Cell membrane human LILRB2 on human primary monocytes from healthy donors (human, UniProt Q8N423 22-597); assay: cell-based or functional assay
Chain of Cell membrane human LILRB2 on human primary monocytes from healthy donors (Q8N423 22-597): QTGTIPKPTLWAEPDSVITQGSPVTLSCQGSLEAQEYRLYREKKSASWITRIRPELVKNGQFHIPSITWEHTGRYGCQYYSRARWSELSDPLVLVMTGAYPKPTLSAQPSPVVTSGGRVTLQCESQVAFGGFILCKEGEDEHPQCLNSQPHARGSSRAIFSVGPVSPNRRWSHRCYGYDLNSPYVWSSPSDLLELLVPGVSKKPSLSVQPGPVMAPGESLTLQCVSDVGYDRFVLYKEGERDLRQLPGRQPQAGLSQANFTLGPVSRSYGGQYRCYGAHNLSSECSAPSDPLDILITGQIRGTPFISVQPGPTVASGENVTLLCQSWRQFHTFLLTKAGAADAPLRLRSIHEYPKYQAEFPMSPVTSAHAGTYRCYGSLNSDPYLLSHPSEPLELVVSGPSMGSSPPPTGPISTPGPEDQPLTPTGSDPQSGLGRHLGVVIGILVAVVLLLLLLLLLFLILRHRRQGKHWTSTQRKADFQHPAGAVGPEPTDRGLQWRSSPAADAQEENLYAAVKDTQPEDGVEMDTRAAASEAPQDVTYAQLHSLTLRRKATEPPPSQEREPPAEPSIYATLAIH

T1 sequence (Q8N423 22-458 limits assumed): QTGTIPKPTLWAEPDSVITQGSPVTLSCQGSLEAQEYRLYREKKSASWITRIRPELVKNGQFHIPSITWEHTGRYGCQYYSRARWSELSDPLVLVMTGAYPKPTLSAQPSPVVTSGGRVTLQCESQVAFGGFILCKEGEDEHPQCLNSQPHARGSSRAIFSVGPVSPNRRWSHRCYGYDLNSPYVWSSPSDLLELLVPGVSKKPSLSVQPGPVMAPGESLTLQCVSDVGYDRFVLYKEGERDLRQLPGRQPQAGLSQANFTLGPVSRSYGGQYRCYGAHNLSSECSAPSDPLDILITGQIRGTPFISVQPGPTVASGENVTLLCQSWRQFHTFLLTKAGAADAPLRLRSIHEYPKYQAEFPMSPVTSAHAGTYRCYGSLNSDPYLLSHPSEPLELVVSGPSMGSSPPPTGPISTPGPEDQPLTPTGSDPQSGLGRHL

B1: 043c (antibody, V domains shown)
VH: QVQLQQSGAELAKPGASVKLSCKASGYTFTSYWMYWVKQRPGQGLEWIGHINPSSGYTKYNQKFKDKATLTADKSSSTAYMQLSSLTYEDSAVYYCARDPNWDNYWGQGTTLTVSS
VL: DIVMTQSHKFMSTSVGDRVSITCKASQDVSIAVAWYQQKPGQSPKLLIYSASYRYTGVPDRFTGSGSGTDFTFTISSVQAEDLAVYYCQQHYSTPYTFGGGTKLEIK
notes: Human IgG4 chimeric antibody with S228P mutation at the Fc region; also called chimeric antibody 043c; parental antibody 043c
Binder B1 has a kon [1] of 494000 M⁻¹ s⁻¹, a koff [2] of 0.00119 s⁻¹ and a Kd [3] of 2.4 nM. For the same binder, the “Relative cytokine/chemokine level, B7-H1/PD-L1 (M2-T coculture 1:1, Luminex)” value [4] was 1.8 fold of Medium, the “Relative cytokine/chemokine level, CCL3/MIP-1 alpha (M2-T coculture 1:1, Luminex)” value [4] was 1.3 fold of Medium and the “Relative cytokine/chemokine level, CCL4/MIP-1 beta (M2-T coculture 1:1, Luminex)” value [4] was 2.4 fold of Medium. The “Relative cytokine/chemokine level, CCL5/RANTES (M2-T coculture 1:1, Luminex)” value [4] was 3.8 fold of Medium, the “Relative cytokine/chemokine level, CCL19/MIP-3 beta (M2-T coculture 1:1, Luminex)” value [4] was 0.3 fold of Medium and the “Relative cytokine/chemokine level, CCL20/MIP-3 alpha (M2-T coculture 1:1, Luminex)” value [4] was 2.2 fold of Medium. The “Relative cytokine/chemokine level, CXCL2/GRO beta (M2-T coculture 1:1, Luminex)” value [4] was 0.4 fold of Medium, the “Relative cytokine/chemokine level, FGF-basic (M2-T coculture 1:1, Luminex)” value [4] was 1.3 fold of Medium and the “Relative cytokine/chemokine level, G-CSF (M2-T coculture 1:1, Luminex)” value [4] was 2.3 fold of Medium. For the same binder, the “Relative cytokine/chemokine level, GM-CSF (M2-T coculture 1:1, Luminex)” value [4] was 1.6 fold of Medium, the “Relative cytokine/chemokine level, Granzyme B (M2-T coculture 1:1, Luminex)” value [4] was 7.6 fold of Medium and the “Relative cytokine/chemokine level, IFN-alpha (M2-T coculture 1:1, Luminex)” value [4] was 2.2 fold of Medium. For the same binder, the “Relative cytokine/chemokine level, IFN-gamma (M2-T coculture 1:1, Luminex)” value [4] was 4.1 fold of Medium, the “Relative cytokine/chemokine level, IL-1beta/IL-1F2 (M2-T coculture 1:1, Luminex)” value [4] was 1.9 fold of Medium and the “Relative cytokine/chemokine level, IL-2 (M2-T coculture 1:1, Luminex)” value [4] was 17.8 fold of Medium. The “Relative cytokine/chemokine level, IL-3 (M2-T coculture 1:1, Luminex)” value [4] was 3.6 fold of Medium, the “Relative cytokine/chemokine level, IL-4 (M2-T coculture 1:1, Luminex)” value [4] was 1.6 fold of Medium and the “Relative cytokine/chemokine level, IL-5 (M2-T coculture 1:1, Luminex)” value [4] was 2.3 fold of Medium. The “Relative cytokine/chemokine level, IL-6 (M2-T coculture 1:1, Luminex)” value [4] was 0.2 fold of Medium, the “Relative cytokine/chemokine level, IL-13 (M2-T coculture 1:1, Luminex)” value [4] was 1.8 fold of Medium and the “Relative cytokine/chemokine level, IL-15 (M2-T coculture 1:1, Luminex)” value [4] was 1.8 fold of Medium. For the same binder, the “Relative cytokine/chemokine level, PDGF-AA (M2-T coculture 1:1, Luminex)” value [4] was 4.3 fold of Medium, the “Relative cytokine/chemokine level, PDGF-AB/BB (M2-T coculture 1:1, Luminex)” value [4] was 1.5 fold of Medium and the “Relative cytokine/chemokine level, TGF-alpha (M2-T coculture 1:1, Luminex)” value [4] was 3.2 fold of Medium. The “Relative cytokine/chemokine level, TNF-alpha (M2-T coculture 1:1, Luminex)” value [4] was 4.8 fold of Medium and the “Relative cytokine/chemokine level, VEGF (M2-T coculture 1:1, Luminex)” value [4] was 0.3 fold of Medium.
